Results: patent publication US20090130652A1 (CRUCELL HOLLAND B V, published 2009)

B1: CR4354L4261 (antibody, human IgG1, lambda, V domains shown)
VH: QVQLVQSGAEVRKPGASVKVSCKASGYTFTHYYMHWVRQAPGQGLEWMGIINPSGGSTTYAQKLQGRVTMTRDTSTSTVYMELSSLRSEDTAVYYCARDWGSNYVWGSYPKYWGQGTLVTVSS
VL: TQAVLTQPSSASGTPGQRVTISCSGSSPNIGSNNVNWYQQLPGTAPKLLIYSNNQRPSGVPGRFSGSKSGTSASLAISGLQSEDEADYYCAAWDDGLSGNYVFGAGTQLTVLS
B2: CR4354L4335 (antibody, human IgG1, lambda, V domains shown)
VH: B1 VH
VL: TQSVLTQPPSTSGTPGQRVTISCSGSDSNIGSNTVNWYQQLPGMAPKLLIYRNNQRPSGVPDRFSGSKSGTSASLAISGLQSEDEADYFCASWDANLGGPLFGGGTKVTVLG
B3: CR4354L4328 (antibody, human IgG1, lambda, V domains shown)
VH: B1 VH
VL: TQAVLTQPSSVSGTPGQRVTISCSGSSSNIGSNTVNWYQQLPGTAPKLLIYGNNNRPSGVPARFSGSRSGTSASLAISGLRSEDEADYYCAAWDDSLNGPVFGGGTKLTVLG

What follows are binders tested against WNV strain 385-99 (infectious, as used in the virus neutralization assay) (assay: cell-based or functional assay).
B1 was tested, and the “Potency (%) in 66% neutralization concentration, VNA” value (“Potency (%)” for short) was 106%. B2 was tested, and the “Potency (%)” value was 60%. B3 was tested, and the “Potency (%)” value was 286%.
